In article PMC12430135, “A Unique Trimeric Assembly of Human Dishevelled 1 PDZ Domain in Crystal: Implication of Homo- and Hetero-Oligomerization During Wnt Signaling Process” (Molecules, 2025):

B1: PDZ domain of human Dishevelled 1 (hDvl1-PDZ), residues 246-340 with CW338, 339AT (domain or fragment, UniProt O14640 246-340, looked up)
chain: SLNIVTVTLNMERHHFLGISIVGQSNDRGDGGIYIGSIMKGGAVAADGRIEPGDMLLQVNDVNFENMSNDDAVRVLREIVSQTGPISLTVAKATD
notes: Dishevelled 1 (Dvl1), human, PDZ domain, residues 246-340, with two amino acid substitutions (CW338, 339AT); 15N-labelled (M9 medium) for NMR; Calculated molecular weight of the monomer printed as 10,754; also called human Dvl1-PDZ; hDvl1-PDZ1

Assays:
[1] = target: Dvl PDZ PDZ (Homo sapiens) (UniProt O14640); settings: cited from earlier work
[2] = target: the molecule itself; assay: crystal structure; hDvl1-PDZ at 8-9.5 mg/ml; vapor diffusion at 20 °C; 0.1 M sodium citrate pH 5.6, 0.5 M ammonium sulfate, 1.0 M lithium sulfate, 0.01 M glutathione, 0.01 M glutathione disulfide; 2.4 Å

| Molecule | Kd [1] [µM] | stoichiometry N [2] |
| --- | --- | --- |
| Dvl C-terminus C-terminus (from UniProt O14640) | 7 | – |
| B1 | – | 3 |
